Laboratory results reported in patent US20090075342.

Tested on: IgE (full length human IgE, h-IgE) (Homo sapiens), P01854-1
Assay: filter
Settings: 2'-deoxy at 6, 8, 9, 16, 18, 19, 20, 21, deoxyinosine at 16, 18, 20 (written as G), T24 = 3' inverted dT], dot-blot, DPBS with Mg and Ca, 0.1 mg/mL BSA, room temperature, 30 min

IgE (full length human IgE, h-IgE) (Homo sapiens), P01854-1, sequence (P01854 other isoform, or with tags, fused parts or gaps): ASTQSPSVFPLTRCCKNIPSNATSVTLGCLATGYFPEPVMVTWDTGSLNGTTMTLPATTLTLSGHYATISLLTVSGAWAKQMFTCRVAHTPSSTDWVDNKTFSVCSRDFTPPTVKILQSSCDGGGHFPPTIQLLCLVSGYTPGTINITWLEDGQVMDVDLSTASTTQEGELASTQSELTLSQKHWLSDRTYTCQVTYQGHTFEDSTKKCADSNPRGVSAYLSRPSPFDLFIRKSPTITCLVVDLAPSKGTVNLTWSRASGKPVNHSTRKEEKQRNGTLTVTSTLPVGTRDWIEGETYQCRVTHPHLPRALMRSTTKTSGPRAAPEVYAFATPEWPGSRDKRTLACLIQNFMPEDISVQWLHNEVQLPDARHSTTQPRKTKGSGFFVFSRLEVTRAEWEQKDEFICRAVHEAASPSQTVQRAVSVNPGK

Q: Which Kd (2'-OMe at A1 G2 C3 C4 U5 G7 A10 C11 C12 C13 A14 U15 G17 C22 U23, 2'-deoxy at G6 G8 G9 I16 I18 G19 I20 G21, n = deoxyinosine, PS between 8-9, 15-16, 16-17, 18-19, 20-21, 3' 3T cap (inverted dT) [2'-OMe at 1-5, 7, 10-15, 17, 22, 23) does the source give for AGCCUGGGGACCCAUGGGGGGCU [ARC1666] here?
A: Its Kd is 0.035 nM.

Q: With AGCCUGGGGACCCAUGGGGGGCU [ARC2982] as the sequence, how does the Kd (as ARC1666 (2'-OMe/2'-deoxy/deoxyinosine, 3' 3T cap) with PS between 8-9, 15-16, 16-17, 17-18, 18-19, 20-21 [2'-OMe at 1-5, 7, 10-15, 17, 22, 23, PS between 8-9, 15-16, 16-17, 17-18, 18-19, 20-21) read?
A: Its Kd is 0.03 nM.

Q: AGCCUGGGGACCCAUGGGGGGCU [ARC2983] was tested. Which Kd (as ARC1666 (2'-OMe/2'-deoxy/deoxyinosine, 3' 3T cap) with PS between 8-9, 15-16, 16-17, 18-19, 19-20, 20-21 [2'-OMe at 1-5, 7, 10-15, 17, 22, 23, PS between 8-9, 15-16, 16-17, 18-19, 19-20, 20-21) did it give?
A: Its Kd is 0.02 nM.

Q: Which Kd (as ARC1666 (2'-OMe/2'-deoxy/deoxyinosine, 3' 3T cap) with PS between 8-9, 15-16, 16-17, 17-18, 18-19, 19-20, 20-21 [2'-OMe at 1-5, 7, 10-15, 17, 22, 23, PS between 8-9, 15-16, 16-17, 17-18, 18-19, 19-20, 20-21) does the source give for AGCCUGGGGACCCAUGGGGGGCU [ARC3901] here?
A: The Kd was 0.13 nM.
